{"source": "patent US20050037394", "assay_in_all_cases": "filter", "key": {"IL-23 (Homo sapiens)": {"target": "IL-23 (Homo sapiens) (UniProt Q9NPF7+P29460)", "sequence (Q9NPF7 20-189, chain 1 of 2)": "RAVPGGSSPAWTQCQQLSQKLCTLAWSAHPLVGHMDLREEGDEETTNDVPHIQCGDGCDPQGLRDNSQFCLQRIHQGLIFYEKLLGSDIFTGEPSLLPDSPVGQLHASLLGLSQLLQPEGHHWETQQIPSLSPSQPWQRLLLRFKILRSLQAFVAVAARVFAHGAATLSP", "sequence (P29460 23-328, chain 2 of 2)": "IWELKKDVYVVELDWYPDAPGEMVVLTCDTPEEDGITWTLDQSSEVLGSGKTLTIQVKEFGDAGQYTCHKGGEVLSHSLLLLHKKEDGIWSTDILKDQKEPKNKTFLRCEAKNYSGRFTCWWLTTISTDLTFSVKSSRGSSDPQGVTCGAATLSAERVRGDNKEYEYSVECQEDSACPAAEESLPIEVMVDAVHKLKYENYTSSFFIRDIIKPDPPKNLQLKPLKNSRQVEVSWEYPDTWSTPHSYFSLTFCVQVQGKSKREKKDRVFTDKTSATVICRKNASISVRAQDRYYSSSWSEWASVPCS", "conditions": "approximately 500 nM or higher, DPBS, 0.1 mg/ml tRNA"}, "IgE (Homo sapiens)": {"system": "IgE (Homo sapiens)", "conditions": "2'-OMe C,U; 2'-OH A,G; approximately 500 nM or higher"}, "[1]": {"target": "Complement C5 full length (Homo sapiens) (UniProt P01031+P01031)", "sequence (P01031 19-673, chain 1 of 2)": "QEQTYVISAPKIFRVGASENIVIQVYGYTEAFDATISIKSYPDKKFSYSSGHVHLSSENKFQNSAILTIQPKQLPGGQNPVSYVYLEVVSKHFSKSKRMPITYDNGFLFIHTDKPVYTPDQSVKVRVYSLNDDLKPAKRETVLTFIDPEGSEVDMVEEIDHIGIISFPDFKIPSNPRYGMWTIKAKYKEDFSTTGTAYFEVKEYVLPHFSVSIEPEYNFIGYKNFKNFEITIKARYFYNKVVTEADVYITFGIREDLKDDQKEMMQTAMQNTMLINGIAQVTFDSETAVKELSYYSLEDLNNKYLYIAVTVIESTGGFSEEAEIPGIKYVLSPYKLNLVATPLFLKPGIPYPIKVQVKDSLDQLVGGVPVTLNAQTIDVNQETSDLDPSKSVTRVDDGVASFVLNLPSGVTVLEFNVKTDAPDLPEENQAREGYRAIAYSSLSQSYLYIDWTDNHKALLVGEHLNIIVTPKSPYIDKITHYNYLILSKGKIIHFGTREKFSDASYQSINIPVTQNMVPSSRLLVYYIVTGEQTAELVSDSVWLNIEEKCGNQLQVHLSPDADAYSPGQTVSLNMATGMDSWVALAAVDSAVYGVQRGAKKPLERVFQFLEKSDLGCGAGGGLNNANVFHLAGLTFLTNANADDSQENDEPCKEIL", "sequence (P01031 678-1676, chain 2 of 2)": "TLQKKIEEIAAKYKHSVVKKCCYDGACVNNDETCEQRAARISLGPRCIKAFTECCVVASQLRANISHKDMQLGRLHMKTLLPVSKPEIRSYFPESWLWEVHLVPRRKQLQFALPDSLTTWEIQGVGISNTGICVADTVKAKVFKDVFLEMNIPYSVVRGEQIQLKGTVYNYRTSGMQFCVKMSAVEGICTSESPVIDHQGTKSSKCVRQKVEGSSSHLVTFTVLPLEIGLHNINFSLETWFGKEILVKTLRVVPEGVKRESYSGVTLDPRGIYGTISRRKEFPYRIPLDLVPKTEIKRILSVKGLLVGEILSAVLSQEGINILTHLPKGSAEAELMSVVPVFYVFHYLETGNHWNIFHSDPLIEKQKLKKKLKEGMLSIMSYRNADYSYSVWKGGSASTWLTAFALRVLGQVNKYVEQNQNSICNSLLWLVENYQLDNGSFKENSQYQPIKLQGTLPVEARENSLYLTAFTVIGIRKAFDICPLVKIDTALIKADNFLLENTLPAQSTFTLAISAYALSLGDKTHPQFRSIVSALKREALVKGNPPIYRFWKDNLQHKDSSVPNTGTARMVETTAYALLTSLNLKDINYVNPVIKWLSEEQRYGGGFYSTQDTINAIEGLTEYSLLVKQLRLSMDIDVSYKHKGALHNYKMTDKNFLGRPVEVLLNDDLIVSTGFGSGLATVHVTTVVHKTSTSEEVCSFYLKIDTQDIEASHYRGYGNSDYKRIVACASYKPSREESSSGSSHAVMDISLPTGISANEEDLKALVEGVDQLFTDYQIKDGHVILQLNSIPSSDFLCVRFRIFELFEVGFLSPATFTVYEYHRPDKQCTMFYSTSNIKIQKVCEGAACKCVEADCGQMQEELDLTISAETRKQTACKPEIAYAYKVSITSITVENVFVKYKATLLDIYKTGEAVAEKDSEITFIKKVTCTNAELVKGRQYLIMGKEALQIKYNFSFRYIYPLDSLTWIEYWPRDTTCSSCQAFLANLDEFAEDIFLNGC", "conditions": "dRmY: deoxy A,G, 2'-OMe C,U, plateau about 10%"}, "IFN-gamma (Homo sapiens)": {"target": "T1, IFN-gamma (Homo sapiens) (UniProt P01579)", "T1 sequence": "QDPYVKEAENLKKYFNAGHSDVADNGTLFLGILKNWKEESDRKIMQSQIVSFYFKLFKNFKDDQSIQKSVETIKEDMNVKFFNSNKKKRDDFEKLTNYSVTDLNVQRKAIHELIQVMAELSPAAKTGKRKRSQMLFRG", "conditions": "dRmY: deoxy A,G, 2'-OMe C,U"}, "PDGF-BB (Homo sapiens)": {"target": "PDGF-BB (Homo sapiens) (UniProt P01127)", "sequence (P01127 82-190)": "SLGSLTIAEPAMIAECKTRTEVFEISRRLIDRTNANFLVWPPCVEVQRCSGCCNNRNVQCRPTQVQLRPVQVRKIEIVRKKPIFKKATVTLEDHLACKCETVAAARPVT", "conditions": "2'-OMe A,C,U; 2'-OH G; approximately 950 nM or higher; naive pool also binds PDGF-BB"}, "[2]": {"conditions": "high salt selection (250 mM NaCl)"}}, "data": [{"sequence": "GGGAGAGGAGAGAACGUUCUACNNNNNNNNNNNNNNNNNNNNNNNNNNNNNNCGCUGUCGAUCGAUCGAUCGAUG [IL-23 rRmY round 9 pool]", "values": [{"measurement": "Kd", "setting": "IL-23 (Homo sapiens); 2'-OMe C,U, 2'-OH A,G", "result": "> 500", "unit": "nM"}]}, {"sequence": "GGGAGAGGAGAGAACGUUCUACNNNNNNNNNNNNNNNNNNNNNNNNNNNNNNCGCUGUCGAUCGAUCGAUCGAUG [IgE rRmY round 6 pool]", "values": [{"measurement": "Kd", "setting": "IgE (Homo sapiens)", "result": "> 500", "unit": "nM"}]}, {"sequence": "GGGAGAGGAGAGAACGUUCUACNNNNNNNNNNNNNNNNNNNNNNNNNNNNNNGGUCGAUCGAUCGAUCAUCGAUG [C5 full-length selection round 10 dRmY pool]", "values": [{"measurement": "Kd", "setting": "[1]; 1x DPBS, tRNA and salmon sperm DNA competitor", "result": 115, "unit": "nM"}]}, {"sequence": "GGGAGAGGAGAGAACGUUCUACNNNNNNNNNNNNNNNNNNNNNNNNNNNNNNGGUCGAUCGAUCGAUCAUCGAUG [C5 partially trypsinized selection round 10 dRmY pool]", "values": [{"measurement": "Kd", "setting": "[1]; selection on partially trypsinized C5", "result": 150, "unit": "nM"}]}, {"sequence": "GGGAGAGGAGAGAACGUUCUACNNNNNNNNNNNNNNNNNNNNNNNNNNNNNNGGUCGAUCGAUCGAUCAUCGAUG [IFN-gamma round 10 dRmY pool, high salt]", "values": [{"measurement": "Kd", "setting": "IFN-gamma (Homo sapiens); [2]", "result": 675, "unit": "nM"}]}, {"sequence": "GGGAGAGGAGAGAACGUUCUACNNNNNNNNNNNNNNNNNNNNNNNNNNNNNNGGUCGAUCGAUCGAUCAUCGAUG [IFN-gamma round 10 dRmY pool, normal stringency]", "values": [{"measurement": "Kd", "setting": "IFN-gamma (Homo sapiens); 1x DPBS, tRNA, ssDNA, BSA", "result": 605, "unit": "nM"}]}, {"sequence": "GGGAGAGGAGAGAACGUUCUACNNNNNNNNNNNNNNNNNNNNNNNNNNNNNNGGUCGAUCGAUCGAUCAUCGAUG [IFN-gamma round 12 dRmY pool, high salt]", "values": [{"measurement": "Kd", "setting": "IFN-gamma (Homo sapiens); [2]", "result": 590, "unit": "nM"}]}, {"sequence": "GGGAGAGGAGAGAACGUUCUACNNNNNNNNNNNNNNNNNNNNNNNNNNNNNNGGUCGAUCGAUCGAUCAUCGAUG [IFN-gamma round 12 dRmY pool, normal stringency]", "values": [{"measurement": "Kd", "setting": "IFN-gamma (Homo sapiens); 1x DPBS, tRNA, ssDNA, BSA", "result": 445, "unit": "nM"}]}, {"sequence": "GGGNGNGGNGNGNNCGUUCUNCNNNNNNNNNNNNNNNNNNNNNNNNNNNNNNCGCUGUCGNUCGNUCGNUCGNUG [IL-23 rGmH round 10 pool]", "values": [{"measurement": "Kd", "setting": "IL-23 (Homo sapiens); 2'-OMe A,C,U, 2'-OH G", "result": "> 500", "unit": "nM"}]}, {"sequence": "GGGNGNGGNGNGNNCGUUCUNCNNNNNNNNNNNNNNNNNNNNNNNNNNNNNNCGCUGUCGNUCGNUCGNUCGNUG [PDGF-BB rGmH round 10 pool]", "values": [{"measurement": "Kd", "setting": "PDGF-BB (Homo sapiens)", "result": "> 950", "unit": "nM"}]}]}
